Experimental data taken from doi:10.1101/2025.05.23.655772, “A Proteolytic Switch: USP5 controls SDE2 function via UBL-directed cleavage” (bioRxiv, 2025).

B1: ubiquitin-specific protease 5, wild type (enzyme, human, UniProt P45974 1-858, looked up)
chain: MAELSEEALLSVLPTIRVPKAGDRVHKDECAFSFDTPESEGGLYICMNTFLGFGKQYVERHFNKTGQRVYLHLRRTRRPKEEDPATGTGDPPRKKPTRLAIGVEGGFDLSEEKFELDEDVKIVILPDYLEIARDGLGGLPDIVRDRVTSAVEALLSADSASRKQEVQAWDGEVRQVSKHAFSLKQLDNPARIPPCGWKCSKCDMRENLWLNLTDGSILCGRRYFDGSGGNNHAVEHYRETGYPLAVKLGTITPDGADVYSYDEDDMVLDPSLAEHLSHFGIDMLKMQKTDKTMTELEIDMNQRIGEWELIQESGVPLKPLFGPGYTGIRNLGNSCYLNSVVQVLFSIPDFQRKYVDKLEKIFQNAPTDPTQDFSTQVAKLGHGLLSGEYSKPVPESGDGERVPEQKEVQDGIAPRMFKALIGKGHPEFSTNRQQDAQEFFLHLINMVERNCRSSENPNEVFRFLVEEKIKCLATEKVKYTQRVDYIMQLPVPMDAALNKEELLEYEEKKRQAEEEKMALPELVRAQVPFSSCLEAYGAPEQVDDFWSTALQAKSVAVKTTRFASFPDYLVIQIKKFTFGLDWVPKKLDVSIEMPEELDISQLRGTGLQPGEEELPDIAPPLVTPDEPKGSLGFYGNEDEDSFCSPHFSSPTSPMLDESVIIQLVEMGFPMDACRKAVYYTGNSGAEAAMNWVMSHMDDPDFANPLILPGSSGPGSTSAAADPPPEDCVTTIVSMGFSRDQALKALRATNNSLERAVDWIFSHIDDLDAEAAMDISEGRSAADSISESVPVGPKVRDGPGKYQLFAFISHMGTSTMCGHYVCHIKKEGRWVIYNDQKVCASEKPPKDLGYIYFYQRVAS
notes: ubiquitin-specific protease 5 (USP5), human; No removal of the His tag is described; also called USP5; USP5^WT; source: E. coli BL21 (DE3), purified (Ni-NTA, SEC)
B2: catalytically inactive USP5 C335A (enzyme, human, UniProt P45974 1-858, looked up)
chain: MAELSEEALLSVLPTIRVPKAGDRVHKDECAFSFDTPESEGGLYICMNTFLGFGKQYVERHFNKTGQRVYLHLRRTRRPKEEDPATGTGDPPRKKPTRLAIGVEGGFDLSEEKFELDEDVKIVILPDYLEIARDGLGGLPDIVRDRVTSAVEALLSADSASRKQEVQAWDGEVRQVSKHAFSLKQLDNPARIPPCGWKCSKCDMRENLWLNLTDGSILCGRRYFDGSGGNNHAVEHYRETGYPLAVKLGTITPDGADVYSYDEDDMVLDPSLAEHLSHFGIDMLKMQKTDKTMTELEIDMNQRIGEWELIQESGVPLKPLFGPGYTGIRNLGNSAYLNSVVQVLFSIPDFQRKYVDKLEKIFQNAPTDPTQDFSTQVAKLGHGLLSGEYSKPVPESGDGERVPEQKEVQDGIAPRMFKALIGKGHPEFSTNRQQDAQEFFLHLINMVERNCRSSENPNEVFRFLVEEKIKCLATEKVKYTQRVDYIMQLPVPMDAALNKEELLEYEEKKRQAEEEKMALPELVRAQVPFSSCLEAYGAPEQVDDFWSTALQAKSVAVKTTRFASFPDYLVIQIKKFTFGLDWVPKKLDVSIEMPEELDISQLRGTGLQPGEEELPDIAPPLVTPDEPKGSLGFYGNEDEDSFCSPHFSSPTSPMLDESVIIQLVEMGFPMDACRKAVYYTGNSGAEAAMNWVMSHMDDPDFANPLILPGSSGPGSTSAAADPPPEDCVTTIVSMGFSRDQALKALRATNNSLERAVDWIFSHIDDLDAEAAMDISEGRSAADSISESVPVGPKVRDGPGKYQLFAFISHMGTSTMCGHYVCHIKKEGRWVIYNDQKVCASEKPPKDLGYIYFYQRVAS
notes: ubiquitin-specific protease 5 (USP5), human, catalytic cysteine mutated; The His tag is used for detection in the TR-FRET assay; also called His-USP5^C335A; source: E. coli BL21 (DE3), purified (Ni-NTA, SEC)

Key:
Conditions in all cases: both partners purified
monoubiquitin = biological target: T1, monoubiquitin (UniProt P0CG48 1-76); assay: ITC; ITC200 at 298 K; 50 mM HEPES, 100 mM NaCl, 1 mM TCEP, pH 7.5; SDE2 construct or monoubiquitin titrated into USP5 (10-12 µM); duplicate
T1 construct: ubiquitin, the mature monomer

[1] = biological target: B2; assay: as above
[2] = biological target: B1; assay: as above
[3] = biological target: B1; assay: thermal shift assay; USP5^WT incubated with ABP for 1 h at 37 °C in PBS, 1 mM DTT, then SYPRO orange, 10-95 °C; Tm of the USP5-ABP covalent complex; triplicate

B1: binds (monoubiquitin).

B2: binds (monoubiquitin).

B3: SDE2 N-terminal ubiquitin-like domain, SDE2UBL(1-77) (domain or fragment, human, UniProt Q6IQ49 1-77, looked up)
chain: MAEAAALVWIRGPGFGCKAVRCASGRCTVRDFIHRHCQDQNVPVENFFVKCNGALINTSDTVQHGAVYSLEPRLCGG
notes: Silencing Defective 2 (SDE2), human, residues 1-77 (ubiquitin-like domain ending in the Gly-Gly motif); source: E. coli BL21 (DE3), purified (Ni-NTA, SUMO protease cleavage, SEC); not shown: His, N-terminal, cleaved; SUMO, N-terminal, cleaved
For B3, the Kd [1] was 1.67 µM and the Kd [2] was 26.6 ± 5 µM.

B4: HA-SDE2UBL-PA, activity-based probe derived from SDE2UBL (domain or fragment, human, UniProt Q6IQ49 1-76, looked up)
chain: MAEAAALVWIRGPGFGCKAVRCASGRCTVRDFIHRHCQDQNVPVENFFVKCNGALINTSDTVQHGAVYSLEPRLCG
modifications: Gly77 replaced with a propargyl electrophilic warhead (C-terminal propargylamine)
notes: Silencing Defective 2 (SDE2), human, residues 1-76 (SDE2UBL with Gly77 truncated); Forms a covalent adduct with the catalytic cysteine of reactive enzymes; also called HA-SDE2UBL-ABP; SDE2UBL-ABP; not shown: HA, N-terminal, kept
With B4 the “Tm of the covalent complex” value [3] was 56.4 ± 0.2 °C.
